Reference: the DeepSol protein solubility set

assay: soluble on expression in E. coli; label from the status in PepcDB or PDB records

Soluble on expression in E. coli, soluble:
MPFPFGKSHKSPADIVKNLKESMAVLEKQDISDKKAEKATEEVSKNLVAMKEILYGTNEKEPQTEAVAQLAQELYNSGLLSTLVADLQLIDFEGKKDVAQIFNNILRRQIGTRTPTVEYICTQQNILFMLLKGYESPEIALNCGIMLRECIRHEPLAKIILWSEQFYDFFRYVEMSTFDIASDAFATFKDLLTRHKLLSAEFLEQHYDRFFSEYEKLLHSENYVTKRQSLKLLGELLLDRHNFTIMTKYISKPENLKLMMNLLRDKSRNIQFEAFHVFKVFVANPNKTQPILDILLKNQAKLIEFLSKFQNDRTEDEQFNDEKTYLVKQIRDLKRPAQQEA
MPFTPSEIKNKEFTRVKNGLEPTEVANYLEQLSNEIERLKEDKKQLEKVIEDRDSNIKSYKDVHQSVSDALIQAQKVGEETKQAATKEAEAVLSKAQVQADSIVNDAIEKARRLAFQTEDMKRQSKVFRSRFRMLVEAQLDLLKSEDWDYLLNYDLDAEQVTLEDIHHLHDNDLTPEERAMKQKQNQEISANQPSTSSSESVSQSNANNESSQSTSNN
MPITWMRMRPWLEMQINSNQIPGLIWINKEEMIFQIPWKHAAKHGWDINKDACLFRSWAIHTGRYKAGEKEPDPKTWKANFRCAMNSLPDIEEVKDQSRNKGSSAVRVYRMLP
MPLNTDFFKPSKNKEKFVLVFLKRGYPSHVDLLTKIAEKVKMKSIGYKIPNAEYLERVSDEELRDLYSSALVTLYPIDFEYYGYIPVESMAAGTPVIAFRYSGGPAETIVDGETGWLASDEEEFYRLTIKVYNEGYPEDTSVKSRKRAEEFSIQN
MPLTDTPPSVPQKPRRGRPRGAPDASLAHQSLIRAGLEHLTEKGYSSVGVDEILKAARVPKGSFYHYFRNKADFGLALIEAYDTYFARLLDQAFLDGSLAPLARLRLFTRMAEEGMARHGFRRGCLVGNLGQEMGALPDDFRAALIGVLETWQRRTAQLFREAQACGELSADHDPDALAEAFWIGWEGAILRAKLELRPDPLHSFTRTFGRHFVTRTQE

Soluble on expression in E. coli, not soluble:
MPESVAVTGGNGRIGKHVLDHLTTAGYRTVNLSRGKCDEAHSDAYIKTDLLDAGELYGALAKSDADTVVHLGMIPTPDQTPGYRTYESNVMSSYHVLEAAGELGIDTVALASSFSAIGGGFEPDLITVDYLPIDEDHRLTPSNPYAMGKQTLEIAADGFARRSTDAPETITSLRFPWVVDDDLAQETFVEADRTLAGLRNSDHFHTQRNTLCGYVHVTDAVALVEAAIEASFAGHERLWVSAPDTSAETPSAELAAELYSDADYRGQTGDDGSPYTALIDTTKAERLLGWEPTWNWRQLA
MPETTYKYEDNEVKKKKTIFNENGYIIEELHYDKNRKEPYSYKKRYNDKGLLVESHEHTYTYEYDKNGNLVQIKRPKNSAYGGLERTTYNKAGKIIRTQTFTQNQYDKAGVKITDDSNYLKDKNGELYQSLTDYSYIYNKDGKLQEIRDNVFSSGTIKYSYEYEDGLYVKTAELVTQKFVTYYDKAGNEVKYKWITYSLGPDKPRTQLHLVFKENKRDKYGNLIYQVANRIEELDPEKKGTDVGIYEKKIIEYEYYELEHHHHHH
MPFENAPHLVFWEVTKACPLTCKHCRANAIDKPLPGELNTEESRKLLEDIARFGKVVIVFTGGDPLSRSDIFELMEYAKSLGLVVSIAPSPSHRLDDETMKIISNYARYMSISLDGATSQTHDWLRGLGSYKYALRGIELGLKYGIQVQVNTLVWKKSYSELPFVVKLLKEMGVKIWEVFFLIPVGRGTTELDIPRDKYKDVIDFLVEATRYDLIVRTVEAPFFRRAKLEYTPATTNDNELVSTLRELLGEPVKEADKSILPTRDGAGVIFIGYNGDVYPSGFLPLYLGNVKKESLVDIYRKSEVLKKIKDSRFEGKCGICKYNNICGGSRARAFAVYNNPFAEDPMCPY
MPFPSRSLRATLCSAPVRMPDAAQKNAATPPPPLALSKPSPSPWAALLTPSSLSFPCSPSLPTYRRTRTAMHGSPPARGLQRRIKVPLMASAPSSIAFDIAAPTAAAWIARWMPVASPRRCSPLLRLCGDYPRCAVAAALSCQRLWIRSTSPLACSTAAGQTRSTPKMTKRPRRGIRRPSRAAGRLGSDTEEAENAALCQRHPEEHAGIFQSQHIKPFPVRAAIDIGTGGVVSLCVARVDATVGAIQKLMYQTQLPLHLEALPTSMSSPSSPLSASSSSFTLSERTMEDITNKVHILQGAMRRNAFEGLSERAAVLSWPLCLARNAGQLAERLTKEFKVDVRVLGADFDVEWPPSVARFLAGEGASTPETADDSRSTVDKGTRDSVTRKGAENTLKSLLCAARAPTTSGLARHKRKVTAPPSSGSASSRGAMDARTQLDTLAFLAHAAVSQCVAPQRLLVLHEDPQRGLRLLGLGTSAADDIADLLDDATTPEERQSLYAIAHGPGPSLLEAGERTPSSGKQVFVAAHAQSRQQASLLPTLSSMRDCQGSADDGTSSDAAPAAASLMRLVEHPLPVDVASAHRYCITQIQRRPLESYGLHASSPNPLLADEFAALRGLLVGMIQPTLPAWVRRKAQLGGVLCGTSHNGGLLNLAARVSQQTHVSLEHLEVHAQYHFCGLTDVLLAESFPNPFLVLPSVALTAAVLRSLESPRITYLPEVSVAAALLVQPSLWLHARATEVRARLARDPFYASTTAAQRGRMFGRPHRKDNPTAAPDATWVKEGRWNPISFSESMRGT
MPFRPQVIIGELMKTFGTNTNALPMSREETKTVEKFTRILKDAETDDLLIQSDDEEEVFGGIVDEEDWKPDDDDPSACVVPDKVNFSSGAAIDVAMVHSAVEFMTDVRTKKLRSFASMQRRYRFIKTQHDMQKLRVFAKNNEIQCSRVSQFSTLSGLLRTKVFEAIDDRISIDKFTLRRLAVQLNDEHVHIEGFQASDGWLKKWKKTNGLVSRHVTTFITRANYVNKELTEQAAKKFVEEVKAELATLDPDVVYNCDQSGFTKEQYCKRTLAPKGVKRVERLVQSKDALTHSYTILPMLSASGKLAPKLYVVLQEKGGKFPKKGHFSPDNLIIRANTSHIMNKQLMVDWVESAVCDPSMPTEVVLLLDAWPAWKNEGDVQAAALSGNTVHVRSIPPGATSFIQPCDLYFFCPLKNFVKKVNAYIIYSGITFKTSERDNLLRVISAVYRVFRAPIFQSCWKYGWIQGGYIDDQHVKVETPSKFCFKVSGYCSQKKTRDTMCQDTAFLLCPYCKKVLCFNHWVGCGFPAHKCKC
MPFVRPLVTVVRAGRHSYSAGLQLQQRLARSNQILNPPAEFRNYLVLQEHDPVYTVGLRTKDYTAQDEDRLRRLGADFHRTDRGGLITFHGPGQLVAYPILHLGQFVPSIRWYVATLERMVVEACHQMGISSAKATKDTGIWVGDNKICAIGIHGSRYVTTHGIGLNCCTDLQWFEHIVPCGIEGKGVTSLSKELDRHFPVEEASGALLNSFAKVFECRLQEHAKKPASSAEIG
MPGNSGNDRSVVVGRVSGAFGVRGWVKAVSFTDPPVNLVGYRPWTLRRGDAERRADVLEGREHGNAVIVRLQGVDTREQAEALKGFEVTVRRSQLPPPAPGEYYRVDLVGLKVVNLGETVLGEVVDVMETGANDVLVVQGDRERLLPFVQGVFVKSVNLEESRIVVDWDPGFLEHHHHHH
MPHPNRTFKIVIAPDSFKSTATTSQAAAFIAEGIQAAVQSNECEGINVEITTVPMADGGEGTSSCFEGIDITLPTTDANGRLTEATYRFDPQSETAYIDVAAASGLPAVEDELRPLTADTYGTGVLIADAQTRGARR
MPISSSSARRAEPAPRPLAEFHPVVRQWFERHFAAPTPAQVEAWPAIREGLSTLVAAPTGSGKTLTAFLAAIDALVVEGLAAGGELADATQVVYVSPLKALSNDIRINLEQPLAGIREELARLGLPDVDIRSAVRTGDTPQVERGAMRKRPPHILVTTPESLYILLGSESGRQMLAGVRSVIVDEIHALAGSKRGSHLALSLERLQALCPRPLLRIGLSATQKPIEKVARFLVGASGNPRDPACRIVDVGYTRPRDLGIEVPPVALEAVMSNDTWELVYDRLAHLAGEHRTTLVFVNTRRMAERVTRFLAERLGSRQVAAHHGSLAKELRLDAEQRLKAGQLKVLVATASLELGIDIGDVELVCQLSSPRSIAAFLQRVGRSGHSVGGTPKGRLFPTSRDDLVECAALLDSVRRGELDSLVLPRQPLDVLAQQIVAEVACQEWREDDLYRLVIRAEPYAGLERERFDEVLRMLAEGYHSRLGVRGAYLHRDALNGLLRGRRGARLTALTSGGTIPDTGDYSVLLEPQGLLVGTVNEDFAVESLAGDVFQLGNTSYRIIRIEPGRVRVEDAQGQPPNIPFWLGEAPGRSDELSASVARLRDTLDELLGEGQALPEGRRLEPAIAWLGATLGLDDGAARQIVEYLARARQALGGLPGSRRLVLERFFDESGGMQLIIHSPHGSRLNRAWGLALRKRFCRSFNFELQAAATEDAIILSLSTSHSFPLDEVWRYLHSASAEHLLVQAVLDAPLFGVRWRWNLTTSLGLPRYAGGRKVPPQLLRMKSEDLLASVFPDQVACLENIVGEREVPDHPLVAQTLDDCLHEAMDCEGWLALLRDMESGAVDLLARDLPAPSALAAEILTARPYAYLDDAPLEERRTQAVQNRRWSDPESADDLGALDLEAIEAVRGEAWPEASNADEMHEALNSLGFLTSGEAEANPGWGEWLAQLSEQRRAGRLDCAGSTLWLAAERLPAMRLVHPAAKVPDAFQAPRGYPPPDSAEAATVELTRARLGGFGPRTAGQLAADLGIGLADQQYALAALEREGYVLRGRFSPGATEEEWCERHLLARIHRYTVKRLRREIEPVERADFMRFLFDWQRLAPGTRGRGAESLATVVEQLEGFQAAAAAWESELLAARVADYASHWLDQLCRSGRIVWARLAGRSKAAGGPLRSAPIVLLPRRELGLWSVLQRDAPEPELSPRAARVLEVLREQGASFFDELSQDAHLLRSELENALGELVSVGRVNADSFAGLRTLLMPADKRSRQERRSRGLPGGMQDAGRWAPLRRAKAEEAGQRLPAEVLEHVARTLLRRYGVVAWRLLEREADWLPPWRELLRVYHRLEARGEIRGGRFIAGLAGEQFALAEAVGLLREVRKRPPDGAMLVVSAVDPLNLVGGLLPGERVPAVTGNRLLYRDGAPLAALVAGKVRMLAEVDGETAQQIRALLI
MPKRKTGYEEMLEDVIETLKQSPEEVNKALETSGKVVEAANDLTKDELALIAAYVKADLKEFSESYEDSKSGPFYLTVADSIWQGLLEITDRTKVEWVELFDDLEHQGLYEAGEVIGLGTLVCDECGHKTTYNHPIIIIPCIKCGHKGFSRQSLKP
MPKRSKEDTEITIQKIMDAVVDQLLRLGYDKMSYTTLSQQTGVSRTGISHHFPKKTDFTAALDGRIFKMFIEHLEFEKGLDAFSQSWIKALEDSEFLAILRLLFHHIVTSESAHEFAANGIDRLYKMVESQFGSGGDKELEWLIGRSLIQMSK
MPLALGGTPFEKHVWARLMEIPLGQTRAYGDLAREMERPEVVRAVGRANGANQLAIVVPCHRILGADGSLTGYGGGLWRKQWLLRHEEKIGTETRMEETALEHHHHHH
MPLNERQLDAFADEHAGQIPFDASPRHLAGPGDARHVTHGLAAAGWATISDPLSAEIVMASPDHRYRLQYDPQSATSAWWRLRATSADNEHGWYAEFGELVPAEVLSSLTDALIAPASPQSDPWQPVTSAGWRPDEAGAAHSPDAMCHIERRPTSEFHERPSWHIEVRDAHDTQYPGPRIWHAYLDEHAPDHLVGAFLSALTDQSPLQRGMFDRTAHYSAVKEPSPLRPQQVVDAHTSRVKVLRAQARAMRRQQTAPAKPPAPTTAVQPAARRLEHHHHHH
